Data taken from patent publication US20230357387A1 (published 2023).
Positions count from the first letter of the chain named. One block for each binder: values may come before it.

What was measured:
[1] = target: T1, human ZIP12 extracellular domain expressed as a GST fusion protein (UniProt Q504Y0 1-202); experiment: SPR; replicate 1
[2] = target: T1, human ZIP12 extracellular domain …; experiment: SPR; replicate 2
[3] = target: T1, human ZIP12 extracellular domain …; experiment: SPR; replicate 1; remark: listed apart in the source
[4] = target: T1, human ZIP12 extracellular domain …; experiment: SPR; replicate 2; remark: listed apart in the source
[5] = target: T1, human ZIP12 extracellular domain …; experiment: SPR; summary value
[6] = target: T1, human ZIP12 extracellular domain …; experiment: ELISA
[7] = target: human ZIP12 on human ZIP12 expressing transfectant cells (UniProt Q504Y0 1-691); experiment: flow cytometry

- Kd [1]: 2.1 nM
- Kd [2]: 2.04 nM
B1: 63A11_H2/_L0 (antibody)
chain 1: not shown
chain 2: DIVMTQSPDSLAVSLGERATINCRASKSVSTSGYSYMHWYQQKPGQPPKLLIYLASNLESGVPDRFSGSGSGTDFTLTISSLQAEDVAVYYCQHSRELPLTFGGGTKVEIKRTVAAPSVFIFPPSDEQLKSGTASVVCLLNNFYPREAKVQWKVDNALQSGNSQESVTEQDSKDSTYSLSSTLTLSKADYEKHKVYACEVTHQGLSSPVTKSFNRGEC

- Kd [3]: 0.706 nM
- Kd [4]: 2.16 nM
B2: *51B12 H0L2 (antibody)
chain 1: not shown
chain 2: B1 chain 2 with L50F, L98V, L100Y

- Kd [1]: 0.888 nM
- Kd [2]: 0.889 nM
B3: 63A11_H0/_L1 (antibody)
chain 1: not shown
chain 2: B1 chain 2 with M4L

- Kd [1]: 1.82 nM
- Kd [2]: 1.96 nM
B4: 63A11_H1/_H1 (antibody)
chain 1: not shown
chain 2: B1 chain 2 with M4L

- Kd [1]: 1.28 nM
- Kd [2]: 1.41 nM
B5: 63A11_H3/_L1 (antibody)
chain 1: not shown
chain 2: B1 chain 2 with M4L

- Kd [1]: 1.32 nM
- Kd [2]: 1.62 nM
B7: 63A11_H1/_L0 (antibody)
chain 1: not shown
chain 2: B1 chain 2

- Kd [1]: 2.38 nM
- Kd [2]: 1.95 nM
B8: 63A11_H0/_L0 (antibody)
chain 1: not shown
chain 2: B1 chain 2

- Kd [1]: 0.97 nM
- Kd [2]: 1.14 nM
B15: 63A11_H2/_L1 (antibody)
chain 1: not shown
chain 2: B1 chain 2 with M4L

- Kd [1]: 1.23 nM
- Kd [2]: 1.62 nM
B18: 63A11_H3/_L0 (antibody)
chain 1: not shown
chain 2: B1 chain 2

- EC50 [6]: 0.0017 µg/mL
- EC50 [7]: 0.233 µg/mL
- Kd [1]: 0.757 nM
- Kd [2]: 0.757 nM
B22: 63A11 parental antibody (antibody, V domains shown)
VH: EVQLVESGGGLVKPGGSRKLSCAASGFTFSDHGMHWVRQAPEKGLEWVAYISSGSSAIFYADTVKGRFTMSRDNAKNTLFLQMTSLRSEDTAMYFCARWTNLYAMDYWGQGTSVTVSS
VL: DIVLTQSPASLAVSLGQRATISCRASKSVSTSGYSYMHWYQQKPGQPPKLLIYLASNLESGVPARFSGSGSGTDFTLNIHPVEEEDAATYYCQHSRELPLTFGAGTKLELKR

Second part, the binder before the results:

B6: 51B12 H0L3 (antibody)
chain 1: not shown
chain 2: B1 chain 2 with M4L, L50F, L98V, L100Y
- Kd [3]: 0.605 nM
- Kd [4]: 0.785 nM
- Kd [5]: 0.7 nM

B9: 63A11 H1/L0 (antibody)
chain 1: not shown
chain 2: B1 chain 2
- EC50 [6]: 0.0018 µg/mL
- EC50 [7]: 0.508 µg/mL

B10: 63A11 H2/L1 (antibody)
chain 1: not shown
chain 2: B1 chain 2 with M4L
- EC50 [6]: 0.0016 µg/mL
- EC50 [7]: 0.586 µg/mL

B11: 63A11 H0/L0 (antibody)
chain 1: not shown
chain 2: B1 chain 2
- EC50 [6]: 0.0018 µg/mL
- EC50 [7]: 0.778 µg/mL

B12: 63A11 H3/L1 (antibody)
chain 1: not shown
chain 2: B1 chain 2 with M4L
- EC50 [6]: 0.0019 µg/mL
- EC50 [7]: 0.5 µg/mL

B13: 51B12H0L1 (antibody)
chain 1: not shown
chain 2: B1 chain 2 with M4L, L98V, L100Y
- Kd [3]: 4.17 nM
- Kd [4]: 1.83 nM

B14: 51B12 H0L0 (antibody)
chain 1: not shown
chain 2: B1 chain 2 with L98V, L100Y
- Kd [3]: 1.39 nM
- Kd [4]: 1.39 nM

B16: 63A11 H2/L0 (antibody)
chain 1: not shown
chain 2: B1 chain 2
- EC50 [6]: 0.0018 µg/mL
- EC50 [7]: 0.411 µg/mL

B17: 63A11 H1/L1 (antibody)
chain 1: not shown
chain 2: B1 chain 2 with M4L
- EC50 [6]: 0.0015 µg/mL
- EC50 [7]: 0.515 µg/mL

B19: 63A11 H3/L0 (antibody)
chain 1: not shown
chain 2: B1 chain 2
- EC50 [6]: 0.002 µg/mL
- EC50 [7]: 0.583 µg/mL

B20: 63A11 H0L1 (antibody)
chain 1: not shown
chain 2: B1 chain 2 with M4L
- Kd [5]: 0.9 nM

B21: 63A11 H0/L1 (antibody)
chain 1: not shown
chain 2: B1 chain 2 with M4L
- EC50 [6]: 0.0016 µg/mL
- EC50 [7]: 0.338 µg/mL
